From US20030176373, “Agents that modulate DNA-PK activity and methods of use thereof” (published 2003) come the findings set out here.

In data set [1] the target is T1, Ku70/Ku80 heterodimer (Ku antigen) (Mus musculus, UniProt P23475;P27641 P23475:2-608,P27641:1-732). The data set can be described thus: competition; unlabeled 0.1-0.4 ug displaces labeled ds-ISS-ODN. On the procedure: (§1) To verify the binding specificity of the Ku protein to ISS-ODN, inhibition studies were performed using cold ss or ds ISS or mutated (M, i.e., control) ODNs. Ten μg of fraction 20 from the affinity column were incubated with [³²P]-labeled ISS-ODN in the presence of unlabeled (0.1, 0.2 and 0.4 μg, respectively) ss-ISS-ODN (lanes 3-5), ds-ISS-ODN (lanes 7-9), ss-M-ODN (lanes 11-13) or ds-M-ODN (lanes 15-17).
T1 sequence (P23475 2-608, chain 1 of 2): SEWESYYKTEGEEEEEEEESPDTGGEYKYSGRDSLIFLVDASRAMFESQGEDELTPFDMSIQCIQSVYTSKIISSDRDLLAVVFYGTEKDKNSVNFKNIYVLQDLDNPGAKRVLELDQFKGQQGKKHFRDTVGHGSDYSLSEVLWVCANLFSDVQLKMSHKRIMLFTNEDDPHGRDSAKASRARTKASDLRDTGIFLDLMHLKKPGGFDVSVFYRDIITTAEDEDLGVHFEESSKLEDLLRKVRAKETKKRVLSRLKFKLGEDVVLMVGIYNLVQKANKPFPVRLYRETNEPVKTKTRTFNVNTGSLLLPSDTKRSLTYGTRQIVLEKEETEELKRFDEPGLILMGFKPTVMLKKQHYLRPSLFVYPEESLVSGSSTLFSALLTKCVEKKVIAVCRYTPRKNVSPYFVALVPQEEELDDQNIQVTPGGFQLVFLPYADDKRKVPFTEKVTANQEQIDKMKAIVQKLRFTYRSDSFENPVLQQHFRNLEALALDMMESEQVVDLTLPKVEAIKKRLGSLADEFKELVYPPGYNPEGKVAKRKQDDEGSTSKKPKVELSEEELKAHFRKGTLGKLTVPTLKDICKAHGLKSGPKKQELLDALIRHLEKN
T1 sequence (P27641 whole entry, chain 2 of 2): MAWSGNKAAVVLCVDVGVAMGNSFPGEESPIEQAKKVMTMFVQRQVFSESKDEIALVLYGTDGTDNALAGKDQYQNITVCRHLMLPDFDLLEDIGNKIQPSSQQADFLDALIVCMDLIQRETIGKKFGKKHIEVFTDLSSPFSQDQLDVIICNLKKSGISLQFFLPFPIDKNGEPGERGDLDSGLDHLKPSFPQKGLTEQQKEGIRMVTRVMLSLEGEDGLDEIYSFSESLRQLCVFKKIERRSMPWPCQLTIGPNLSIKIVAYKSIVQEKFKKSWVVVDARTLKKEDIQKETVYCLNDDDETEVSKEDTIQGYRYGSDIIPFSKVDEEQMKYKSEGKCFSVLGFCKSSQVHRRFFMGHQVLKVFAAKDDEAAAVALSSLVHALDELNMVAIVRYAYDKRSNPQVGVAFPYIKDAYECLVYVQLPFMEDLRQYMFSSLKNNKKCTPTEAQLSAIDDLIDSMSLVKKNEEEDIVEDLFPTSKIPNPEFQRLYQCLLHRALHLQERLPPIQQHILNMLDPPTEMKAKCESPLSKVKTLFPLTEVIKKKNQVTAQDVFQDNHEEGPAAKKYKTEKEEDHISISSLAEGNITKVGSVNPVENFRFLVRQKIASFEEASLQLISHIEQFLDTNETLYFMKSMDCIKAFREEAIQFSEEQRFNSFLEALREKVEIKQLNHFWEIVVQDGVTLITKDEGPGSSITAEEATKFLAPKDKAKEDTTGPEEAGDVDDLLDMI

In data set [2] the target is T1, Ku70/Ku80 heterodimer (Ku antigen). Kind of data set: competition; no significant competition at 0.1-0.4 ug. On the procedure:
as §1

B1: ss-ISS-ODN (ssDNA)
DNA: TGACTGTGAACGTTCGAGATGA
For the molecule B1, the binding result in data set [1] is recorded as “binds”.

B2: ss-M-ODN (ssDNA)
DNA: TGACTGTGAACCTTAGAGATGA
Take B2: in data set [2], the binding result is recorded as “no binding”.
